Among the targets are HLA-A*02:01; HLA-A*02:03; HLA-A*02:06; HLA-A*02:02; HLA-A*68:02; HLA-A*24:02; HLA-A*23:01; HLA-A*01:01; HLA-A*26:01; HLA-A*29:02; HLA-A*30:02; HLA-A*30:01; HLA-A*32:01.
What all share (assay): IEDB peptide-MHC binding, purified MHC/competitive/radioactivity; filed as Kd, often an IC50 or EC50 that approximates it; ≥ and ≤ were set here for values at or beyond the usual limits of such assays
A further assay concerns the target HLA-B*35:01. Conditions: source organism: Vaccinia virus WR.
For another assay, the target named is HLA-A*11:01. The conditions noted are these: source organism: Vaccinia virus WR.
For the next assay, the target named is HLA-B*53:01. The conditions noted are these: source organism: Vaccinia virus WR.
A further assay concerns the target HLA-A*03:01. Conditions: source organism: Vaccinia virus WR.
The target in a further assay is HLA-A*68:01. The conditions noted are these: source organism: Vaccinia virus WR.
The target in the next assay is HLA-B*07:02. Conditions: source organism: Vaccinia virus WR.
For the next assay, the target named is HLA-B*54:01. The conditions noted are these: source organism: Vaccinia virus WR.
A further assay concerns the target HLA-A*31:01. The conditions noted are these: source organism: Vaccinia virus WR.
The target in the next assay is HLA-B*51:01. The conditions noted are these: source organism: Vaccinia virus WR.
Another assay deals with HLA-A*33:01. Conditions: source organism: Vaccinia virus WR.
The target in the next assay is HLA-B*44:03. Conditions: source organism: Dengue virus 1 Brazil/97-11/1997.
The mark [1] stands for this setting: source organism: Vaccinia virus WR.
Where [2] appears, read: source organism: Mammarenavirus whitewaterense.
The mark [3] stands for this setting: source organism: Dengue virus 1 Brazil/97-11/1997.
Setting [4] is: source organism: Mammarenavirus brazilense.
[5] abbreviates: source organism: SARS coronavirus Tor2.
Setting [6] is: source organism: Mammarenavirus guanaritoense.
The mark [7] stands for this setting: source organism: Dengue virus 4 Philippines/H241/1956.
Where [8] appears, read: source organism: Mammarenavirus lassaense.
Setting [9] is: source organism: Mammarenavirus juninense.
[10] abbreviates: source organism: Trypanosoma cruzi.
[11] abbreviates: source organism: Dengue virus 2 Jamaica/1409/1983.

By Kd is commonly meant a measure of binding affinity in units of concentration.

For the sequence ATLMKTSCSK, the Kd is at least 69.9 µM in the assay with HLA-B*35:01; at least 69.4 µM with HLA-A*02:01 (setting [1]); 0.0199 µM with HLA-A*11:01; at least 69.9 µM with HLA-B*53:01; at least 70.4 µM with HLA-A*02:03 (setting [1]); 0.0336 µM in the assay with HLA-A*03:01. Further, the Kd with HLA-A*02:06 (setting [1]) was at least 69.8 µM; with HLA-A*02:02 (setting [1]) it was at least 70 µM; with HLA-A*68:01, 4.95 µM; with HLA-A*68:02 (setting [1]), at least 69.8 µM; in the assay with HLA-B*07:02, at least 21.6 µM; in the assay with HLA-B*54:01, at least 69.9 µM. Besides, the figures for the Kd with HLA-A*31:01, with HLA-B*51:01 and with HLA-A*33:01 were 0.411 µM, at least 69.6 µM and at least 70 µM, respectively.
With AYAQMWSLM, the dissociation constant Kd in the assay with HLA-A*24:02 (source organism: Dengue virus 3 Martinique/1243/1999) was found to be 0.0121 µM.
For the sequence CSYKIGHHV, the Kd with HLA-A*23:01 (setting [2]) is 17.5 µM; with HLA-A*01:01 (setting [2]), 0.0591 µM; in the assay with HLA-A*26:01 (setting [2]) it was at least 64.5 µM; with HLA-A*29:02 (setting [2]), at least 26.3 µM; with HLA-A*24:02 (setting [2]), at least 29.2 µM; in the assay with HLA-A*30:02 (setting [2]) it was 0.0944 µM.
For the sequence CWCNATDTW, in the assay with HLA-A*23:01 (setting [3]), the dissociation constant (Kd) is 0.711 µM.
With DTGNYILCY, the Kd was 0.273 µM with HLA-A*01:01 (setting [4]); 5.73 µM in the assay with HLA-A*26:01 (setting [4]); 1.41 µM with HLA-A*29:02 (setting [4]); 18 µM in the assay with HLA-A*30:02 (setting [4]); 2.44 µM with HLA-A*30:01 (setting [4]); at least 24.8 µM in the assay with HLA-A*32:01 (setting [4]).
Take ELINIPYCNY: the Kd is 15.8 µM in the assay with HLA-A*01:01 (setting [2]); 0.227 µM with HLA-A*26:01 (setting [2]); 1.81 µM with HLA-A*29:02 (setting [2]); 0.0888 µM in the assay with HLA-A*30:02 (setting [2]); at least 70.4 µM with HLA-A*30:01 (setting [2]); at least 28.3 µM with HLA-A*32:01 (setting [2]).
For the sequence FFASFYYIW, the Kd in the assay with HLA-A*23:01 (setting [5]) is 0.176 µM; in the assay with HLA-A*01:01 (setting [5]), at least 37.6 µM; with HLA-A*26:01 (setting [5]), at least 26.2 µM; with HLA-A*29:02 (setting [5]) it was 0.0945 µM; in the assay with HLA-A*24:02 (setting [5]), 0.0209 µM; with HLA-A*30:02 (setting [5]) it was at least 67.1 µM.
Take FYSEESPTEY: the dissociation constant Kd in the assay with HLA-A*01:01 (setting [6]) was 0.192 µM; with HLA-A*26:01 (setting [6]), 7.36 µM; in the assay with HLA-A*29:02 (setting [6]), 0.0801 µM; with HLA-A*30:02 (setting [6]), at least 27 µM; in the assay with HLA-A*30:01 (setting [6]) it was at least 48.7 µM; with HLA-A*32:01 (setting [6]) it was at least 69.9 µM.
With GARVIWMDAY, the Kd with HLA-A*29:02 (setting [1]) was at least 55.6 µM; in the assay with HLA-A*11:01, 5.51 µM; with HLA-A*03:01 it was 1.02 µM; with HLA-A*68:01, 0.978 µM; with HLA-A*31:01, 0.22 µM; with HLA-A*33:01, 0.505 µM.
As for GWKNWQEVPF, the dissociation constant (Kd) with HLA-A*23:01 (setting [7]) amounted to 0.43 µM; in the assay with HLA-A*24:02 (setting [7]), 0.19 µM.
For GYKETPFLTI, the Kd came to 0.139 µM in the assay with HLA-A*23:01 (setting [4]), 0.108 µM with HLA-A*29:02 (setting [4]) and 0.159 µM with HLA-A*24:02 (setting [4]).
As for HDLMMGYAWI, the dissociation constant (Kd) with HLA-A*23:01 (setting [8]) was 8.22 µM; in the assay with HLA-A*01:01 (setting [8]), at least 51 µM; in the assay with HLA-A*26:01 (setting [8]), at least 69.7 µM; with HLA-A*29:02 (setting [8]) it was at least 63.9 µM; with HLA-A*24:02 (setting [8]), at least 40.1 µM; in the assay with HLA-A*30:02 (setting [8]) it was 19.2 µM.
Turning to IAMGYVVSSF, the Kd was 5.14 µM in the assay with HLA-A*01:01 (setting [9]); 0.53 µM with HLA-A*26:01 (setting [9]); 1.49 µM in the assay with HLA-A*29:02 (setting [9]); 0.22 µM with HLA-A*30:02 (setting [9]); 9.1 µM with HLA-A*30:01 (setting [9]); 0.996 µM in the assay with HLA-A*32:01 (setting [9]).
IGAGICASY: the Kd with HLA-A*23:01 (setting [5]) is at least 77.8 µM; in the assay with HLA-A*01:01 (setting [5]), at least 47.8 µM; with HLA-A*26:01 (setting [5]) it was 6.65 µM; in the assay with HLA-A*29:02 (setting [5]) it was 0.0199 µM; with HLA-A*24:02 (setting [5]), at least 60 µM; with HLA-A*30:02 (setting [5]), 0.00118 µM.
In the case of KTSVDCNMY, the dissociation constant (Kd) is at least 77.8 µM with HLA-A*23:01 (setting [5]); 0.0986 µM with HLA-A*01:01 (setting [5]); at least 81.5 µM in the assay with HLA-A*26:01 (setting [5]); 2.72 µM with HLA-A*29:02 (setting [5]); at least 77.6 µM with HLA-A*24:02 (setting [5]); 0.00266 µM in the assay with HLA-A*30:02 (setting [5]).
Consider LLFASMGFK, for which the dissociation constant (Kd) was at least 41.6 µM with HLA-B*35:01; 4.83 µM in the assay with HLA-A*02:01 (setting [1]); 0.00171 µM with HLA-A*11:01; at least 78.2 µM in the assay with HLA-B*53:01; 0.183 µM in the assay with HLA-A*02:03 (setting [1]); 0.000874 µM in the assay with HLA-A*03:01. The dissociation constant (Kd) was 16.7 µM with HLA-A*02:06 (setting [1]); 0.294 µM in the assay with HLA-A*02:02 (setting [1]); 0.0126 µM in the assay with HLA-A*68:01; at least 36.3 µM in the assay with HLA-A*68:02 (setting [1]); at least 77.5 µM with HLA-B*07:02; at least 78.1 µM with HLA-B*54:01. Besides, the Kd was 0.0556 µM with HLA-A*31:01, at least 77.5 µM with HLA-B*51:01 and 2.94 µM with HLA-A*33:01.
As for LSEMLNKEY, the Kd with HLA-A*01:01 (setting [4]) is 0.00525 µM; in the assay with HLA-A*26:01 (setting [4]) it was at least 77.9 µM; with HLA-A*29:02 (setting [4]), 5.72 µM; in the assay with HLA-A*30:02 (setting [4]), 14.7 µM; with HLA-A*30:01 (setting [4]), 9.77 µM; with HLA-A*32:01 (setting [4]), at least 77.8 µM.
Take LVGLLSNAAS: the Kd worked out at 11.2 µM with HLA-A*02:01 (setting [10]); 0.395 µM in the assay with HLA-A*02:03 (setting [10]); 1.33 µM with HLA-A*02:06 (setting [10]); 1.72 µM in the assay with HLA-A*02:02 (setting [10]); 4.31 µM with HLA-A*68:02 (setting [10]).
As for MWHVTRGSVI, the figures for the dissociation constant (Kd) with HLA-A*23:01 (setting [7]) and in the assay with HLA-A*24:02 (setting [7]) were 1.08 µM and 1.28 µM, respectively.
On to PYMPTVIEEL, for which the Kd in the assay with HLA-A*24:02 (setting [7]) was 0.211 µM.
As for QYVYMGQPL, the dissociation constant Kd with HLA-A*24:02 (setting [3]) is 4.52 µM.
Take RPDTRHLRVL: the equilibrium dissociation constant (Kd) with HLA-B*35:01 is at least 69.9 µM; with HLA-A*02:01 (setting [1]), at least 69.4 µM; with HLA-A*11:01, at least 69.8 µM; with HLA-B*53:01 it was at least 69.9 µM; with HLA-A*02:03 (setting [1]), at least 70.4 µM; with HLA-A*03:01 it was at least 70.1 µM. Further, the Kd was at least 69.8 µM in the assay with HLA-A*02:06 (setting [1]); at least 70 µM with HLA-A*02:02 (setting [1]); at least 70.2 µM in the assay with HLA-A*68:01; at least 69.8 µM with HLA-A*68:02 (setting [1]); 0.0117 µM in the assay with HLA-B*07:02; at least 69.9 µM with HLA-B*54:01. For the same sequence, the equilibrium dissociation constant (Kd) with HLA-A*31:01 is at least 70 µM; with HLA-B*51:01, at least 69.6 µM; with HLA-A*33:01 it was at least 70 µM.
Turning to SFIEVKSCHW, the Kd with HLA-A*23:01 (setting [11]) was found to be 0.461 µM.
As for SFIEVKTCIW, the dissociation constant (Kd) with HLA-A*23:01 (setting [3]) was found to be 0.0173 µM; with HLA-B*44:03 it was 1.26 µM.
Regarding TYGLNTFTNM, the Kd with HLA-A*23:01 (setting [11]) was determined as 4.92 µM.
With VTLITGNMSF, in the assay with HLA-A*24:02 (setting [11]), the Kd was found to be 11.5 µM.
Take VTNLISETLK: the Kd is at least 69.9 µM in the assay with HLA-B*35:01; at least 69.4 µM in the assay with HLA-A*02:01 (setting [1]); 0.00847 µM with HLA-A*11:01; at least 69.9 µM with HLA-B*53:01; at least 70.4 µM with HLA-A*02:03 (setting [1]); 0.409 µM in the assay with HLA-A*03:01. In addition, the equilibrium dissociation constant (Kd) is 17.3 µM with HLA-A*02:06 (setting [1]); at least 70 µM with HLA-A*02:02 (setting [1]); 0.0944 µM in the assay with HLA-A*68:01; at least 34.9 µM with HLA-A*68:02 (setting [1]); at least 69.6 µM with HLA-B*07:02; at least 69.9 µM with HLA-B*54:01. Moreover, the dissociation constant Kd with HLA-A*31:01 is 3.27 µM; in the assay with HLA-B*51:01, at least 69.6 µM; with HLA-A*33:01, at least 34.2 µM.
